Measured values: patent US10954305B2 (Immunomedics, Inc., priority 2016, dated 2021)

Columns and labels:
[1] = Phase I/II clinical trial of IMMU-132, adverse events; assay type: in vivo, human; conditions: for dose-limiting toxicity: Phase I
Source text: The maximum tolerated dose (MTD) was judged on the patient's tolerance to the first treatment cycle.

[2] = test system: p21^WAF1/Cip1 in MDA-MB-468; test: immunoblotting of apoptotic pathway; assay type: cell-based, human; conditions: by 48 h
Method: Cells (2×10^6) were plated in 6-well plates overnight. […] Parental hRS7 was used as a control for the ADC.

[3] = storage stability of lyophilized IMMU-132; assay type: physicochemical
Source text: HIC-HPLC results were confirmed by liquid chromatography-mass spectrometry (LC-MS) (not shown).

[4] = test system: diverse metastatic solid cancers; test: Phase I/II clinical trial of IMMU-132, all tumor types; assay type: in vivo, human
Method: Dose escalation followed a standard 3+3 scheme with 4 planned dose levels and dose delay or reduction allowed. Twenty-five patients (52-60 years old, 3 median prior chemotherapy regimens) were treated at dose levels of 8 (N=7), 10 (N=6), 12 (N=9), and 18 (N=3) mg/kg. […] Lower doses were acceptable for extended treatment with no treatment-related grade 4 toxicities and grade 3 toxicities limited to fatigue (N=3), neutropenia (N=2), diarrhea (N=1), and leukopenia (N=1). […] No pre-selection of patients based on tumor Trop-2 expression was undertaken.
The trial was designed as a standard 3+3 Phase I design, starting at a dose of 8 mg/kg per injection, with dosages given weekly for 2 weeks in a 3-week treatment cycle.
Prior to the start of each infusion, most patients received acetaminophen, anti-histamines (H1 and H2 blockers), and dexamethasone. Prophylactic use of antiemetics or anti-diarrheal medications was prohibited. Therapy consisted of 2 consecutive doses given on days 1 and 8 of a 3-week treatment cycle, with the intent to allow patients to continue treatment for up to 8 cycles (i.e., 16 treatments) unless there was unacceptable toxicity or progression. Patients showing disease stabilization or response after 8 cycles could continue treatments.

## IMMU-132
[1]; 10 mg/kg
  grade-3 diarrhea, patients: 1
[1]; 18 mg/kg, 3 treated
  Dose-limiting toxicity 1st cycle, patients: 2
[1]; 49 patients reporting related AE
  neutropenia >Grade 3: 28%
[1]; 261 patients enrolled
  incidence of Grade 3 or higher adverse events other than neutropenia: less than 10%
[1]; N = 47
  Abdominal pain, Grade 3, n (%): 0
  Abdominal pain, Grade 4, n (%): 0
  Anemia, Grade 3, n (%): 2 (4%)
  Anemia, Grade 4, n (%): 0
  Deep vein thrombosis, Grade 3, n (%): 1 (2%)
  Deep vein thrombosis, Grade 4, n (%): 0
  Diarrhea, Grade 3, n (%): 4 (9%)
  Diarrhea, Grade 4, n (%): 0
  Dysgeusia, Grade 3, n (%): 0
  Dysgeusia, Grade 4, n (%): 0
  Fatigue, Grade 3, n (%): 4 (9%)
  Fatigue, Grade 4, n (%): 0
  Febrile Neutropenia, Grade 3, n (%): 1 (2%)
  Febrile Neutropenia, Grade 4, n (%): 2 (4%)
  Hypokalemia, Grade 3, n (%): 1 (2%)
  Hypokalemia, Grade 4, n (%): 0
  Nausea, Grade 3, n (%): 0
  Nausea, Grade 4, n (%): 0
  Neutropenia, Grade 3, n (%): 11 (24%)
  Neutropenia, Grade 4, n (%): 2 (4%)
  Pyrexia, Grade 3, n (%): 0
  Pyrexia, Grade 4, n (%): 0
  Vomiting, Grade 3, n (%): 1 (2%)
  Vomiting, Grade 4, n (%): 0
  WBC Decrease, Grade 3, n (%): 1 (2%)
  WBC Decrease, Grade 4, n (%): 0
[1]
  dose-limiting toxicity: neutropenia
[1]; listed as sacituzumab govitecan
  dose-limiting toxicity: Neutropenia
[2]
  decrease of p21^WAF1/Cip1: 43%
[3]
  stability once prepared and lyophilized: stable for several years
[4]; 12 patients
  duration of maintained disease control: 16-36 weeks
[4]; 24 assessable patients, Phase I
  long-term stable disease: Over 80%
[4]; 48 assessable patients (excluding PDC)
  disease response: 79%
[4]; 48 patients
  TTP, range: 6.0 to 51.4 wks
  time to progression (TTP): ≥ 12.6 wks
[4]; Phase I, 25 patients
  patients with partial response: 3
  patients with progression (PD): 7
  patients with stable disease: 15
[4]; human, in vivo
  responses or disease stabilization after prior topoisomerase I inhibitor: 7 of 9
[4]; of 48 assessable patients
  PD: 14
  PR: 7
